Test results taken from PMC12047441.

Target: T1, His-tagged A. vinelandii NifEN heterologously expressed in E. coli, O- and L-cluster containing (AvNifEN^Ec-L) (A. vinelandii) (UniProt P08293)
T1 sequence 1: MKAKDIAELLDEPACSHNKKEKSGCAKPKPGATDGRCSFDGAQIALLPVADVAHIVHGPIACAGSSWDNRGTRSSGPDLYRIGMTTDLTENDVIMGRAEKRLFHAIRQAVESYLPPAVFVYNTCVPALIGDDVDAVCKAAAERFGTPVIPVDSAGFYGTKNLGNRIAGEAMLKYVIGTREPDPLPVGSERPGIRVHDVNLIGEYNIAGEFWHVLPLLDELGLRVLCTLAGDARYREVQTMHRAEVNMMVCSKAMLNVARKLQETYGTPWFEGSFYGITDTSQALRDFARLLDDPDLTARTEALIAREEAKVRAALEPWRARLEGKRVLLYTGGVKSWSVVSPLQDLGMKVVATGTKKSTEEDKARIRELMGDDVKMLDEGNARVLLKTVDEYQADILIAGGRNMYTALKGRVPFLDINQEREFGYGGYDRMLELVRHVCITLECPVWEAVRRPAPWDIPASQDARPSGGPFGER
T1 sequence 2: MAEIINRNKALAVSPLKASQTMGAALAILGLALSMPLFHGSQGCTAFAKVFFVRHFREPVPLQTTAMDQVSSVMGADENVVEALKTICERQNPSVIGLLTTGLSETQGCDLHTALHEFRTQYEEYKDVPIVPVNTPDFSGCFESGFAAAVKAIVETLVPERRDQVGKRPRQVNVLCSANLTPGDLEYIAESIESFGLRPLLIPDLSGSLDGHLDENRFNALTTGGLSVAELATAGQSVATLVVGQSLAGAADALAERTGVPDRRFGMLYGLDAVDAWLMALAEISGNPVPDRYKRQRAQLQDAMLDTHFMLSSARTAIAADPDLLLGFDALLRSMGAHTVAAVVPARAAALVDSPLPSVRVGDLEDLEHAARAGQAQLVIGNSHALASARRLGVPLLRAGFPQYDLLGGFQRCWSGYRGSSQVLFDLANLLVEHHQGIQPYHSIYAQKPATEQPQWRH

- L-cluster occupancy of AvNifEN^Ec-L calculated from the Fe content, after in vivo transfer of the L-cluster from NifB to NifEN in E. coli: 42.9%
- L-cluster occupancy of AvNifEN^Ec-L relative to native AvNifEN^L (intensity of the g = 1.94 EPR feature), after in vivo transfer of the L-cluster from NifB to NifEN in E. coli: 36%
B1: M. acetivorans NifB (MaNifB), radical SAM enzyme, L-cluster bound (enzyme)
chain: MPEENQPIKEKNNGPILGEELLRKISEHPCYDKNAQHKYGRIHLAVAPACNIQCNFCVREFDCVNESRPGVTSKVLTPEEALEKTKQILAEYPFIKVVAIAGPGDPLANDETFETFELIRNEFPEITLCMSTNGLMLPEKLPEILRTGVSTLTVTVNAIDPEIQAKIVDHIFYHGKVYKGVEAAKIQIKNQLDGIKAAIDAGIVVKVNTVLIPGINDKHIIEIAKKLNELGVYIMNVMPLINQGAFADLEPPTPEERKAVQEACEPYVMQMRHCRQCRADAYGLLAQDMSQMSEERRKVIKIQTKEDMEKARAVLEKNGKKEA
